Measured values from US20200325224A1.

Columns and labels:
[1] = target: human CD3 epsilon (on human T cells / CD3-positive Jurkat E6-1 cells) (human) (UniProt P07766); experiment: FACS on expanded human T cells (hum PBL), antibody at 1 µg/ml, Alexa488-labelled secondary antibody, geomean of fluorescence
[2] = target: human CD3 epsilon (on human T cells / CD3-positive Jurkat E6-1 cells) (human) (UniProt P07766); experiment: FACS on expanded human T cells (hum PBL), antibody at 10 µg/ml, Alexa488-labelled secondary antibody, geomean of fluorescence
[3] = target: human CD3 epsilon (on human T cells / CD3-positive Jurkat E6-1 cells) (human) (UniProt P07766); experiment: FACS on expanded human T cells (hum PBL), antibody at 0.1 µg/ml, Alexa488-labelled secondary antibody, geomean of fluorescence
[4] = target: cynomolgus CD3 epsilon (on expanded cynomolgus T cells) (cynomolgus) (UniProt Q95LI5); experiment: FACS on expanded cynomolgus T cells (cyno PBL), antibody at 1 µg/ml, Alexa488-labelled secondary antibody, geomean of fluorescence
[5] = target: cynomolgus CD3 epsilon (on expanded cynomolgus T cells) (cynomolgus) (UniProt Q95LI5); experiment: FACS on expanded cynomolgus T cells (cyno PBL), antibody at 10 µg/ml, Alexa488-labelled secondary antibody, geomean of fluorescence
[6] = target: cynomolgus CD3 epsilon (on expanded cynomolgus T cells) (cynomolgus) (UniProt Q95LI5); experiment: FACS on expanded cynomolgus T cells (cyno PBL), antibody at 0.1 µg/ml, Alexa488-labelled secondary antibody, geomean of fluorescence

human CD3 epsilon (on human T cells / CD3-positive Jurkat E6-1 cells) (human), sequence (P07766 23-207 limits assumed): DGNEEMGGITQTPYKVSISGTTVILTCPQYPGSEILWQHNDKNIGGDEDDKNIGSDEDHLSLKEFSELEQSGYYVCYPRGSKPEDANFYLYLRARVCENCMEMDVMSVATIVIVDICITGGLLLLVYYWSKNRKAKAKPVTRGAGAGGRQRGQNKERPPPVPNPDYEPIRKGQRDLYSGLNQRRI
cynomolgus CD3 epsilon (on expanded cynomolgus T cells) (cynomolgus), sequence (Q95LI5 22-197 limits assumed): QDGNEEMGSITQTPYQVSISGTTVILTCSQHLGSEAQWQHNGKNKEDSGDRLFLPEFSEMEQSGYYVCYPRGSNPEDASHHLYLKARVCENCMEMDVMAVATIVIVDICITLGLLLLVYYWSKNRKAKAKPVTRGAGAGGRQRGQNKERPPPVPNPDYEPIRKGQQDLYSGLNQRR

Row | geomean at 1 µg/ml [1] | geomean at 10 µg/ml [2] | geomean at 0.1 µg/ml [3] | geomean at 1 µg/ml [4] | geomean at 10 µg/ml [5] | geomean at 0.1 µg/ml [6] | Substance
1 | 39 | 47 | 43 | 38 | 40 | 37 | Iso rb (antibody)
2 | 42 | 44 | 40 | 33 | 34 | 33 | M-IgG1 (antibody)
3 | 9610 | 15900 | 2610 | 16500 | 19500 | 5000 | anti-CD3 reference antibody SP34-2
4 | 56 | 85 | 54 | 64 | 67 | 61 | hu-IgG1 (antibody)
